# Laboratory results published in US20250236850.
# T1: AN4702 protein of Aspergillus nidulans (uniprot entry Q5B428), native N-terminally histidine-methylated protein, Q5B428
# T1 chain: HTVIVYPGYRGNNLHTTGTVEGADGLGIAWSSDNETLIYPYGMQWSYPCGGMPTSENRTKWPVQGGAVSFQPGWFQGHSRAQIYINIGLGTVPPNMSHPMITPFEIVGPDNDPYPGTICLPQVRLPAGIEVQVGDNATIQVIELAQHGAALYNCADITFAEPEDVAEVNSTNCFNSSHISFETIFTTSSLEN
# T2: AA9A LPMO from Lentinus similis (LsAA9A), secreted by K. phaffii, His6-tagged
# T2 chain: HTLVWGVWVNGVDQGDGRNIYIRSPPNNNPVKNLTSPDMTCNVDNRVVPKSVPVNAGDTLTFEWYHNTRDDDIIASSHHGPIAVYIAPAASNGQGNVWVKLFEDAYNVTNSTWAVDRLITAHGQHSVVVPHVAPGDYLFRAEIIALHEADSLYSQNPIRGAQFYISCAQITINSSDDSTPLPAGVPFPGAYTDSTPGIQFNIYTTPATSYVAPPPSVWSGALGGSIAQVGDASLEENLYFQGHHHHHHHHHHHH
# Legend:
# [1] = biological target: T1, AN4702 protein of Aspergillus nidulans …
# [2] = biological target: T2, AA9A LPMO from Lentinus similis …
protein,measurement,setting,value
Truncated variant of AN4663 lacking the transmembrane region (positions 1-224) (protein) LNNIIADDGFALVARQDSTTGYISVLDNLEDGFRVMRCDHSLLGGQWIKKRPNYTPPAVKDPIYAVFTMLEAVRLVETAHGIPRADAGSNALVIGLGIGTTPGALISHGIDTTIVEIDPVVHKYALQYFDLPENHTPIIEDARAFVQRSRNAPQPKQYDYIVHDVFTGGAEPVELFTYEFISGLHALLKDDGVIAINYAGDISLYSTALSIRTIKSIFPTCRLFREAAAPEIGPDFTNMVIFCTKSRGAPITFRDPVPEDFLGSRFRSRYLVPKHEVDAAQFDNVGLEDGPQGHGRRVLVDKEVGRLHKYQDRSALEHWGIMRTVLPDRVWEGW,PRM quantification of methylated and unmethylated N-terminal peptide after truncation of AN4663,[1],the expression of this variant abolished the N-terminal histidine methylation capacity of the enzyme
AN4663 N-terminal histidine methyltransferase (NHMT) from Aspergillus nidulans (protein) MAPFRSIYEKDATKKLVVGAALLVLAAFYSYVFLLTLAPVYGSTPSHIFHGYGVGIAGVAGWFSKDIVDRVSGRKAIYAIPVLAFFLPVVQYFVSQQSSALGNPAGPIFTEVLALYPLVLLSVACAGKLVQAGLNLQRHGDLVAEHIPLLGSYVIYSAGEHLIKAFLSRFIGSTVLLSRAGLQILIAIFYAAAVPSKALLLAIPAFLFSVTSNTHLPLGHTTTALNNIIADDGFALVARQDSTTGYISVLDNLEDGFRVMRCDHSLLGGQWIKKRPNYTPPAVKDPIYAVFTMLEAVRLVETAHGIPRADAGSNALVIGLGIGTTPGALISHGIDTTIVEIDPVVHKYALQYFDLPENHTPIIEDARAFVQRSRNAPQPKQYDYIVHDVFTGGAEPVELFTYEFISGLHALLKDDGVIAINYAGDISLYSTALSIRTIKSIFPTCRLFREAAAPEIGPDFTNMVIFCTKSRGAPITFRDPVPEDFLGSRFRSRYLVPKHEVDAAQFDNVGLEDGPQGHGRRVLVDKEVGRLHKYQDRSALEHWGIMRTVLPDRVWEGW,"methylation stoichiometry of the N-terminal peptide of secreted LsAA9A (targeted MS), Amy signal peptide construct, co-expression in K. phaffii",[2],a methylation stoichiometry on average of 65% of the peptides for the Amy signal peptide
same,"methylation stoichiometry of the N-terminal peptide of secreted LsAA9A (targeted MS), native signal peptide construct, co-expression in K. phaffii",[2],29% for the native signal peptide
same,PRM assay of N-terminal histidine methylation of the AN4702 peptide in A. nidulans knockout strains,[1],"the knockout of the gene [SEQ ID NO.: 1] encoding AN4663 (uniprot entry Q5B467) [SEQ ID NO.: 2] abolished the N-terminal histidine methylation on the monitored peptides and conversely, the unmethylated form was observed"
C-terminally mRFP-tagged AN4663 (strain NID2794) (protein) MAPFRSIYEKDATKKLVVGAALLVLAAFYSYVFLLTLAPVYGSTPSHIFHGYGVGIAGVAGWFSKDIVDRVSGRKAIYAIPVLAFFLPVVQYFVSQQSSALGNPAGPIFTEVLALYPLVLLSVACAGKLVQAGLNLQRHGDLVAEHIPLLGSYVIYSAGEHLIKAFLSRFIGSTVLLSRAGLQILIAIFYAAAVPSKALLLAIPAFLFSVTSNTHLPLGHTTTALNNIIADDGFALVARQDSTTGYISVLDNLEDGFRVMRCDHSLLGGQWIKKRPNYTPPAVKDPIYAVFTMLEAVRLVETAHGIPRADAGSNALVIGLGIGTTPGALISHGIDTTIVEIDPVVHKYALQYFDLPENHTPIIEDARAFVQRSRNAPQPKQYDYIVHDVFTGGAEPVELFTYEFISGLHALLKDDGVIAINYAGDISLYSTALSIRTIKSIFPTCRLFREAAAPEIGPDFTNMVIFCTKSRGAPITFRDPVPEDFLGSRFRSRYLVPKHEVDAAQFDNVGLEDGPQGHGRRVLVDKEVGRLHKYQDRSALEHWGIMRTVLPDRVWEGW,PRM assay of N-terminal histidine methylation in A. nidulans (strain NID2794),[1],the C-terminal mRFP tagged version was unable to methylate the LPMOs
N-terminally mRFP-tagged AN4663 (strain NID2789) (protein) MAPFRSIYEKDATKKLVVGAALLVLAAFYSYVFLLTLAPVYGSTPSHIFHGYGVGIAGVAGWFSKDIVDRVSGRKAIYAIPVLAFFLPVVQYFVSQQSSALGNPAGPIFTEVLALYPLVLLSVACAGKLVQAGLNLQRHGDLVAEHIPLLGSYVIYSAGEHLIKAFLSRFIGSTVLLSRAGLQILIAIFYAAAVPSKALLLAIPAFLFSVTSNTHLPLGHTTTALNNIIADDGFALVARQDSTTGYISVLDNLEDGFRVMRCDHSLLGGQWIKKRPNYTPPAVKDPIYAVFTMLEAVRLVETAHGIPRADAGSNALVIGLGIGTTPGALISHGIDTTIVEIDPVVHKYALQYFDLPENHTPIIEDARAFVQRSRNAPQPKQYDYIVHDVFTGGAEPVELFTYEFISGLHALLKDDGVIAINYAGDISLYSTALSIRTIKSIFPTCRLFREAAAPEIGPDFTNMVIFCTKSRGAPITFRDPVPEDFLGSRFRSRYLVPKHEVDAAQFDNVGLEDGPQGHGRRVLVDKEVGRLHKYQDRSALEHWGIMRTVLPDRVWEGW,PRM assay of N-terminal histidine methylation in A. nidulans (strain NID2789),[1],methylation of LPMOs was stoichiometric for the N-terminally tagged version
AN4663 with E340A substitution (strain NID2787) (protein) MAPFRSIYEKDATKKLVVGAALLVLAAFYSYVFLLTLAPVYGSTPSHIFHGYGVGIAGVAGWFSKDIVDRVSGRKAIYAIPVLAFFLPVVQYFVSQQSSALGNPAGPIFTEVLALYPLVLLSVACAGKLVQAGLNLQRHGDLVAEHIPLLGSYVIYSAGEHLIKAFLSRFIGSTVLLSRAGLQILIAIFYAAAVPSKALLLAIPAFLFSVTSNTHLPLGHTTTALNNIIADDGFALVARQDSTTGYISVLDNLEDGFRVMRCDHSLLGGQWIKKRPNYTPPAVKDPIYAVFTMLEAVRLVETAHGIPRADAGSNALVIGLGIGTTPGALISHGIDTTIVAIDPVVHKYALQYFDLPENHTPIIEDARAFVQRSRNAPQPKQYDYIVHDVFTGGAEPVELFTYEFISGLHALLKDDGVIAINYAGDISLYSTALSIRTIKSIFPTCRLFREAAAPEIGPDFTNMVIFCTKSRGAPITFRDPVPEDFLGSRFRSRYLVPKHEVDAAQFDNVGLEDGPQGHGRRVLVDKEVGRLHKYQDRSALEHWGIMRTVLPDRVWEGW,PRM assay of N-terminal histidine methylation in A. nidulans (strain NID2787),[1],Site-directed mutagenesis of this glutamate to an alanine (E340A) lead to a loss of N-terminal histidine methylation generating a similar methylation phenotype to a complete knockout of AN4663
